Results published in US8178324B2, “Deracemisation of amines” (Ingenza Limited, priority 2002, dated 2012).

Test system: CCCCCN
Test: Colorimetric hydrogen peroxide amine oxidase assay, purified mutant enzyme (N336S)
Assay type: biochemical, Aspergillus niger
Conditions: other: purified N336S mutant; 30.0 °C
Description: The wild-type enzyme was also purified by the same protocol and the two enzymes compared for substrate specificity and enantioselectivity.
The mutated gene was also sequenced and the sequence is shown in SEQ ID NO: 2. There was a single amino acid change from the wild-type enzyme with serine replacing asparagine at position 336.
LB medium (6×300 ml) containing ampicillin (100 μg·ml^−1) in 1 L baffled flasks was inoculated with a single colony of monoamine oxidase mutant from an LB agar plate. Cultures were incubated at 30° C. for 22 hours (OD600˜3.6) then harvested and washed with phosphate buffer (50 mM, pH 8) to yield a yellow-brown pellet (11.2 g).
The pellet was resuspended in Tris/HCl buffer (25 mM, pH 7.8, 30 ml) and sonicated on ice (30 s on, 30 s off for 10 minutes). The suspension was then centrifuged (20,000 rpm, 4° C.) until clear supernatant was obtained and the supernatant dialysed against Tris/HCl buffer (25 mM, pH 7.8). […]
The spectrophotometer was blanked against assay mixture and HRP. Enzyme was added and the absorbance at 500 nm measured at 3 s intervals for a 10 minute period.
The Km values were calculated using ‘KaleidaGraph for Windows’ (Synergy Software). For calculation of the kcat, the active enzyme concentration was determined by estimating the FAD content from the absorbance at 458 nm using an extinction coefficient of 11 mM^−1 cm^−1 (see ref 12).

Work on “mutant A. niger monoamine oxidase (N336S) (Aspergillus niger; A300V/K348M/L304V/N336S/R450G)” yielded a Km of 400 µM and a kcat of 1.93 s⁻¹.
